From the DeepSol protein solubility set come the findings set out here.

The data set in a line: soluble on expression in E. coli; label from the status in PepcDB or PDB records.
Regarding “MADHAHNLRATFGHGRPIGVITRGTTGFNRLRRCDRWMAHHPLIQQALRRTSDPIALDVGYGASFTTTVEWARWLRTMRDDVRVTGLEIDPERVLPPRDGVTFELGGFELAGYQPTLVRAFNVLRQYDVDQVMDAWEMVTSRLQPGGFFVEGTCDELGRRSTWVLLNHAGPQSLTLCWDPFDVERPSDIAERLPKILIHRNVAGEKIHDVLLRTDEAWDRCAPWASYGPRVRWRAARAMLMDMGIPMSIIRRPVRDNQLTVPWSIVDPTT”, the “soluble on expression in E. coli” value was “not soluble”.

“MADIGSTYNGPLSSHWFPEELAQWEPDSDPDAPFNRSHVPLEPGRVADRVNANADTDAHLVSLSALNRHTSGVPSQGAPVFYENTFSYWHYTDLMVYWAGSAGEGIIVPPSADVIDASHRNGVPILGNVFFPPTVYGGQLEWLEQMLEQEEDGSFPLADKLLEVADYYGFDGWFINQQTEGADEGTAEAMQAFLVYLQEQKPEGMHIMWYDSMIDTGAIAWQNHLTDRNKMYLQNGSTRVADSMFLNFWWRDQRQSNELAQALGRSPYDLYAGVDVEARGTSTPVQWEGLFPEGEKAHTSLGLYRPDWAFQSSETMEAFYEKELQFWVGSTGNPAETDGQSNWPGMAHWFPAKSTATSVPFVTHFNTGSGAQFSAEGKTVSEQEWNNRSLQDVLPTWRWIQHGGDLEATFSWEEAFEGGSSLQWHGSLAEGEHAQIELYQTELPISEGTSLTWTFKSEHGNDLNVGFRLDGEEDFRYVEGEQRESINGWTQWTLPLDAFAGQTITGLAFAAEGNETGLAEFYIGQLAVGADSEKPAAPNVNVRQYDPDPSGIQLVWEKQSNVHHYRVYKETKHGKELIGTSAGDRIYLEGLVEESKQNDVRLHIEALSETFVPSDARMIDIKSGSF”: the “soluble on expression in E. coli” value is reported as “soluble”.

In the case of “MADPWLSIIGLGEDGPAGLPDASRAALEAAEVVVGGPRHLALVDARARGMEWPVPFDPAPVLALRGRPVAVLASGDPFWHGAGGSLAAALSPGEWRAYPAPGVVALAAARLGWRQEELLALGLHAAPFERLLPELAPGRRGVCTLRDGPAAGALAAFLAAEGWGESRLWVMEALGGPRERVRATTAGAFSLTDVAAPVTVAFEAEGGRAQPRSAGLPDSLFAHDGQITKAPVRALTLAALAPRRGEILWDLGAGSGSVSVEWCLAGGRAVAVELRPERAANIRANAARFALPLEVVEGRALDNLPALPAPDAIFVGGGFDEALFAALPPTARLVVNAVTLETEALLAALQARHGGELLRIELARAAPLGRMRGWEAARPVVQWSLVR”, the “soluble on expression in E. coli” value is “not soluble”.

With “MADQEHIDAGLLSTNFDMIQALPLNVKQRVCALKNLQMKTIQIESDFYKRVHELEIEFEGKFKSTFDQRKAIVAGEVEPTKEQIDTPILEGLEGDQLAELYKAAEADPSAKGIKDFWLTALRTHDLVAEAIEEHDVPILSYLTDVTTAASKDPAGFKIEFHFATNPYFKNQVLTKTYLLGFDPDAEAPLQFDGPHVIRAVGDTIEWEDGKNVTKKAVKKKQKKGANAGKFLTKTVKADSFFNFFEPPKSKDERNEDEDDEQAEEFLELDYEMGQAIRDTIIPRAVLFYTGELQSDDMFDFPGEDGDDVSDFSDDEA”, the “soluble on expression in E. coli” value is on record as “soluble”.

Regarding “MADRDATLWASHEKMLSQPLKDSDAEVYSIIKKESNRQRVGLELIASENFASRAVLEALGSSLNNKYSEGYPGQRYYGGTEFIDELEMLCQKRALQAYHLDPQCWGVNVQPYSGSPANFAVYTALVEPHGRIMGLDLPDGGHLTHGFMTDKKKISATSIFFESMPYKVYPETGYINYDQLEENASLFHPKLIIAGTSCYSRNLDYARLRKIADDNGAYLMADMAHISGLVAAGVVPSPFEHCHVVTTTTHKTLRGCRAGMIFYRKGVRSVDPKTGKETYYELESLINSAVFPGLQGGPHNHAIAGVAVALKQAMTTEFKIYQLQVLANCRALSDALTELGYKIVTGGSDNHLILMDLRSKGTDGGRAEKVLEACSIACNKNTCPGDKSALRPSGLRLGTPALTSRGLLEEDFQKVAHFIHRGIELTLQIQSHMATKATLKEFKEKLAGDEKIQSAVATLREEVENFASNFSLPGLPDF”, the “soluble on expression in E. coli” value was “soluble”.

Regarding “MADSAELKQMVMSLRVSELQVLLGYAGRNKHGRKHELLTKALHLLKAGCSPAVQMKIKELYRRRF”, the “soluble on expression in E. coli” value was “soluble”.

For “MADVTGIALGMIETRGLVPAIEAADAMTKAAEVRLVGRQFVGGGYVTVLVRGETGAVNAAVRAGADACERVGDGLVAAHIIARVHSEVENILPKAPQA”, the “soluble on expression in E. coli” value is on record as “soluble”.

Turning to “MADYKVKDISLAEWGRKAIELAENEMPGLMELRREYGPSQPLKGAKIAGCLHMTVQTAVLIETLKALGAELRWSSCNIFSTQDNAAAAIAKTGVPVFAWKGETDEEYEWCIAQTVKGFSGDGLPNMILDDGGDLTNLVIDRYPELVPKIFGISEETTTGVKNLYKRLSKGNLPISAINVNDSVTKSKFDNLYGCRESLVDGIKRATDVMIAGKTCCVCGYGDVGKGCAAALRAFGARVVVTEVDPINALQASMEGYQVALVEDVMADAHIFVTTTGNDDIITSDHFPHMRDDAIVCNIGHFDTEIQVGWLEANAKEHVEIKPQVDRYTMENGRHIILLAKGRLVNLGCASGHPSFVMSNSFTNQVLAQIELWSNRDNGKYPRGDKAGVFFLPKALDEKVAALHLAHVGAKLTKLTPKQAEYINCPVNGPFKPDHYRY”, the “soluble on expression in E. coli” value is listed as “soluble”.

As to “MAEEHHHHHHHHLEVLFQGPGRPKTHTVGSVAKVEQVKFDATSMHVKPQVAAQQKMVDDGSGEVQVWRIENLELVPVDSKWLGHFYGGDCYLLLYTYLIGEKQHYLLYVWQGSQASQDEITASAYQAVILDQKYNGEPVQIRVPMGKEPPHLMSIFKGRMVVYQGGTSRTNNLETGPSTRLFQVQGTGANNTKAFEVPARANFLNSNDVFVLKTQSCCYLWCGKGCSGDEREMAKMVADTISRTEKQVVVEGQEPANFWMALGGKAPYANTKRLQEENLVITPRLFECSNKTGRFLATEIPDFNQDDLEEDDVFLLDVWDQVFFWIGKHANEEEKKAAATTAQEYLKTHPSGRDPETPIIVVKQGHEPPTFTGWFLAWDPFKWSGIHVVPNLSPLSNN”, the “soluble on expression in E. coli” value is “soluble”.

With “MAEERGRPQYRPNCNGLSSYYRERFGSHSPEVYLNLRISGFDDRLEREQIKQYLTQELKKYAPFEIKVVKNPEEDERLAYVNFERNDCARKVRYTLMDRLKSVLGKRVQCDPAGILRDQEGKYIPDRFNRAQHGADSKREGGSGSGNRGRPTKEPSTWRLKQDDDEATRTLFVGNMPSDVKEREIRHVFEEHGKVEEVDIKTPINTDAAYAFVMFQTVDQAIQAKAEEQDRPIRAGGSRMKIGYGKSQVSRRLFVGGLGSWCDKEILQKAFGEFGFVENIDYDHGQPYAYVVYENTHTSQEACRSLRGACISKGNHPIMVDYAKDLTAQPEKQQFMRKRRASKSPVGASAVRTPPGSPKDVVRNFAELEEAYAATWSGKMALKKTDYPVKFYRVYGAERLPVKLLRDEDDVPLRLLITQRLSLSSQNLLFDKLASCSSKELSLGVITGKKELSDLQPLVNYFTNKEAAGVVTVPGGILYIFPFCEFALKLLAEFTPQVNVFNENCPFLLGALAVRAPGTP”, the “soluble on expression in E. coli” value was “not soluble”.

In the case of “MAEGERLYLCGEFTKAIQSFTNALHLQSGDKNCLVARSKCYLKMGDLEKSLNDAEASLRNDPTFCKGILQKAETLYTMGDFEFALVFYHRGYKLRPDREFKVGIQKAQEAINNSVGSPSSIKLENKGDLSFLSKQAESKKAQQKHLPIKQLSYSTKHEIKRKGSLKSEKTVRQLLGELYVDKEYLEKLLLDEDLIKGTIKSGLTVEDLIMTGINYLDTRSNFWRQQKPIYARERDRKLMQEKWLRDRKRSPSQTAHYILKSLEDIDMLLTSGSADGSLQKAEKVLKKVLEWNQEEVPNKDELVGNLYSCIGNAQIELGQMVAALQSHRKDLEIAKEHDLPDAKSRALDNIGRVFARVGKFQQAIDVGGEDPSSQNHPGEDLALPRDWPLLLGAGPGVAGPELWGKVSAVR”, the “soluble on expression in E. coli” value is on record as “soluble”.

With “MAEGERQPPPDSSEEAPPATQNFIIPKKEIHTVPDMGKWKRSQAYADYIGFILTLNEGVKGKKLTFEYRVSEAIEKLVALLNTLDRWIDETPPVDQPSRFGNKAYRTWYAKLDEEAENLVATVVPTHLAAAVPEVAVYLKESVGNSTRIDYGTGHEAAFAAFLCCLCKIGVLRVDDQIAIVFKVFNRYLEVMRKLQKTYRMEPAGSQGVWGLDDFQFLPFIWGSSQLIDHPYLEPRHFVDEKAVNENHKDYMFLECILFITEMKTGPFAEHSNQLWNISAVPSWSKVNQGLIRMYKAECLEKFPVIQHFKFGSLLPIHPVTSG”, the “soluble on expression in E. coli” value is given as “soluble”.

“MAEGNTLISVDYEIFGKVQGVFFRKHTQAEGKKLGLVGWVQNTDRGTVQGQLQGPISKVRHMQEWLETRGSPKSHIDKANFNNEKVILKLDYSDFQIVG”: the “soluble on expression in E. coli” value is recorded as “soluble”.

Take “MAEHDLTARMAGHLDCHLVLPLLEFLQERHLYPEEEILEAKIRLLRGTNMVDYAMDIHKSRYGTDDVPEDMVKRRAEVVSRLTSLGEAIDNIHQNQQIGPDQIETLYQYAKFQFDCGNYSFAAQYLHQYRALCTNIERSLSALWGKLAAEILMQNWDVALEELNRLKEIIDSKNFSSPLNQLQNRIWLMHWSIFIFYNHENGRNGIIDLFFQERYLNAIQTNAPHLLRYLATAVVVNKRRRNMLKELIKVIQQEQHSYKDPITEFLECLFVNYDFDGAQQKLIECEEVILNDPFLGKRIEEGNSITVPLRDEFLENARLFIFETYCRIHRSIDIGMLSQKLNMRYDEGELWIMNLVRNSKLDAKIDSVSGTLIMTTNHVNIHEQFIESLKNLNMRTSMLAKNIVEPAQAMQQATR”: the “soluble on expression in E. coli” value is reported as “not soluble”.

For “MAEHGETQADEEEEEQVWSWGAGTDGQLGTTKLQDELLPQLLSLTSLPSISMLACGGAHVIALTSGGKVFTWGRGSSGQLGHGDILNITLPKLVSFFDDSVITQAAAGWSHSGFVSDSGCIFTCGNGSFGQLGHGDTLSLSTPAKVSHFNNDSVKMVACGMRHSLVLFAGNQVCGFGSGKRGQLGFSSDRIKSVNLPCVVSGLKDVEVVRISANGDHSAAISADGQFFSWGRGFCGGPDVHAPQSLPSPLSFREVAVGWNHALLLTVDGEVFKLGSTLNKQPEKQQLQIDSSEALFEKVPDFDGVKVMQIAAGAEHSAAVTENGEVKTWGWGEHGQLGLGNTNDQTSPELVSLGSIDLRTKEIKVYCGSGFTYAVKRKQELSPTSS”, the “soluble on expression in E. coli” value is on record as “soluble”.

“MAEHRGGSGNFAEDREKASDAGRKGGQHSGGNFKNDPQRASEAGKKGGQQSGGNKSGKS”: the “soluble on expression in E. coli” value is on record as “soluble”.

Regarding “MAEIYEEGDESVDVNKESEVKTELGKGGGDENVLQFLDSLDGYLTLMDSVNSKLREGWFDLASARHSMGTLRINSTLLDLKYHPASSTLQVTDQDVESLGSVPHFALSKWASKGGSRKGKDFSTDTDSEIGSPLSPQLRHRGVSEEKPSAKDETVLAADEEIKKERAKSLSVFGGLVSPKLRGAQQSFETALETLVEIANMRASMISAFERITEK”, the “soluble on expression in E. coli” value is given as “soluble”.

In the case of “MAEKFDCHYCRDPLQGKKYVQKDGHHCCLKCFDKFCANTCVECRKPIGADSKEVHYKNRFWHDTCFRCAKCLHPLANETFVAKDNKILCNKCTTREDSPKCKGCFKAIVAGDQNVEYKGTVWHKDCFTCSNCKQVIGTGSFFPKGEDFYCVTCHETKFAEHCVKCNKAITSGGITYQDQPWHADCFVCVTCSKKLAGQRFTAVEDQYYCVDCYKNFVAKKCAGCKNPITGFGKGSSVVAYEGQSWHDYCFHCKKCSVNLANKRFVFHQEQVYCPDCAKKL”, the “soluble on expression in E. coli” value is on record as “soluble”.
